Publication PMC11949838, “FUT10 and FUT11 are protein O-fucosyltransferases that modify protein EMI domains” (Nature Chemical Biology, 2025)

T1: GFP–FUT10 (POFUT3) (Homo sapiens, UniProt Q6P4F1)
T1 sequence (Q6P4F1 34-479 limits assumed): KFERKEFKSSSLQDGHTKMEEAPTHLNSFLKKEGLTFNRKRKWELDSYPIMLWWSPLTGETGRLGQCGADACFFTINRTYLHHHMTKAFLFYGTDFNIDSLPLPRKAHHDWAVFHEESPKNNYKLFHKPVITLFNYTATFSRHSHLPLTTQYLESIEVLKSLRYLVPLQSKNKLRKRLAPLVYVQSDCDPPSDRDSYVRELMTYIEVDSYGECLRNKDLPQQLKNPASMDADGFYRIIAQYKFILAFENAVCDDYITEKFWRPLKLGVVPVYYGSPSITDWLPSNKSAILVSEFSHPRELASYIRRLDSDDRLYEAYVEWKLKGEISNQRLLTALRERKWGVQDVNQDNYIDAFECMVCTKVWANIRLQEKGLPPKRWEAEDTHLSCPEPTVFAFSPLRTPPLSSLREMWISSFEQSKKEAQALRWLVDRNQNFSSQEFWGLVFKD

T2: GFP–FUT8 (Homo sapiens, UniProt Q9BYC5)
T2 sequence (Q9BYC5 31-575 limits assumed): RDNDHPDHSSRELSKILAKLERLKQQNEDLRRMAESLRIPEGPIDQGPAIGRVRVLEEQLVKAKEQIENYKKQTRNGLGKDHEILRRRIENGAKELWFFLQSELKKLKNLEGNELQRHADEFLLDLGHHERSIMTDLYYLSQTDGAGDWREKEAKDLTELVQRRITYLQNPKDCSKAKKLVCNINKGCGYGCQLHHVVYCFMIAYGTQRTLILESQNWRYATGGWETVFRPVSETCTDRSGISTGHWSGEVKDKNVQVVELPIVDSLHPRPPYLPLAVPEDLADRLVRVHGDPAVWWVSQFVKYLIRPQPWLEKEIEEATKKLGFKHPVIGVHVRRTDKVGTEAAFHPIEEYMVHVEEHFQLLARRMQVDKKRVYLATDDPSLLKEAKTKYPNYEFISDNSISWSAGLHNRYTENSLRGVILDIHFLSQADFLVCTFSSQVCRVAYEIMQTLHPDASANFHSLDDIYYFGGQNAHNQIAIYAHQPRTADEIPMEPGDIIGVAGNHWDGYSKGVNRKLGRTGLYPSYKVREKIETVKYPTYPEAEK

B1: GFP–FUT11 (POFUT4) (Homo sapiens) (protein)
chain: AGGEAEWAEPWDGAVFRPPSALGAVGVTRSSGTPRPGREEAGDLPVLLWWSPGLFPHFPGDSERIECARGACVASRNRRALRDSRTRALLFYGTDFRASAAPLPRLAHQSWALLHEESPLNNFLLSHGPGIRLFNLTSTFSRHSDYPLSLQWLPGTAYLRRPVPPPMERAEWRRRGYAPLLYLQSHCDVPADRDRYVRELMRHIPVDSYGKCLQNRELPTARLQDTATATTEDPELLAFLSRYKFHLALENAICNDYMTEKLWRPMHLGAVPVYRGSPSVRDWMPNNHSVILIDDFESPQKLAEFIDFLDKNDEEYMKYLAYKQPGGITNQFLLDSLKHREWGVNDPLLPNYLNGFECFVCDYELARLDAEKAHAASPGDSPVFEPHIAQPSHMDCPVPTPGFGNVEEIPENDSWKEMWLQDYWQGLDQGEALTAMIHNNETEQTKFWDYLHEIFMKRQHL
B2: Multimerin-1 (MMRN1): FX KO (protein)
parent chain: MKGARLFVLLSSLWSGGIGLNNSKHSWTIPEDGNSQKTMPSASVPPNKIQSLQILPTTRVMSAEIATTPEARTSEDSLLKSTLPPSETSAPAEGVRNQTLTSTEKAEGVVKLQNLTLPTNASIKFNPGAESVVLSNSTLKFLQSFARKSNEQATSLNTVGGTGGIGGVGGTGGVGNRAPRETYLSRGDSSSSQRTDYQKSNFETTRGKNWCAYVHTRLSPTVILDNQVTYVPGGKGPCGWTGGSCPQRSQKISNPVYRMQHKIVTSLDWRCCPGYSGPKCQLRAQEQQSLIHTNQAESHTAVGRGVAEQQQQQGCGDPEVMQKMTDQVNYQAMKLTLLQKKIDNISLTVNDVRNTYSSLEGKVSEDKSREFQSLLKGLKSKSINVLIRDIVREQFKIFQNDMQETVAQLFKTVSSLSEDLESTRQIIQKVNESVVSIAAQQKFVLVQENRPTLTDIVELRNHIVNVRQEMTLTCEKPIKELEVKQTHLEGALEQEHSRSILYYESLNKTLSKLKEVHEQLLSTEQVSDQKNAPAAESVSNNVTEYMSTLHENIKKQSLMMLQMFEDLHIQESKINNLTVSLEMEKESLRGECEDMLSKCRNDFKFQLKDTEENLHVLNQTLAEVLFPMDNKMDKMSEQLNDLTYDMEILQPLLEQGASLRQTMTYEQPKEAIVIRKKIENLTSAVNSLNFIIKELTKRHNLLRNEVQGRDDALERRINEYALEMEDGLNKTMTIINNAIDFIQDNYALKETLSTIKDNSEIHHKCTSDMETILTFIPQFHRLNDSIQTLVNDNQRYNFVLQVAKTLAGIPRDEKLNQSNFQKMYQMFNETTSQVRKYQQNMSHLEEKLLLTTKISKNFETRLQDIESKVTQTLIPYYISVKKGSVVTNERDQALQLQVLNSRFKALEAKSIHLSINFFSLNKTLHEVLTMCHNASTSVSELNATIPKWIKHSLPDIQLLQKGLTEFVEPIIQIKTQAALSNLTCCIDRSLPGSLANVVKSQKQVKSLPKKINALKKPTVNLTTVLIGRTQRNTDNIIYPEEYSSCSRHPCQNGGTCINGRTSFTCACRHPFTGDNCTIKLVEENALAPDFSKGSYRYAPMVAFFASHTYGMTIPGPILFNNLDVNYGASYTPRTGKFRIPYLGVYVFKYTIESFSAHISGFLVVDGIDKLAFESENINSEIHCDRVLTGDALLELNYGQEVWLRLAKGTIPAKFPPVTTFSGYLLYRT
B3: Multimerin-1 (MMRN1): T216A (protein)
parent chain: B2 parent chain
B4: Multimerin-1 (MMRN1): T216A/T265A (protein)
parent chain: B2 parent chain
B5: Multimerin-1 (MMRN1): FUT10/11 DKO (protein)
parent chain: B2 parent chain
B6: Multimerin-1 (MMRN1): T1055A (protein)
parent chain: B2 parent chain
B7: Multimerin-1 (MMRN1): T265A (protein)
parent chain: B2 parent chain

Tests used:
[1] = molecular target: human MMRN1 N-terminal EMI-Myc-His6 (first 290 amino acids of Multimerin-1, wild type) (human) (UniProt Q13201)
[2] = molecular target: T1, GFP–FUT10 (POFUT3); assay: nano LC-MS/MS of O-fucosylated EMI peptides; assay type: biochemical; settings: donor; 100 μM with 0.5 μM non-fucosylated MMRN1 N-terminal EMI, 50 mM HEPES pH 7, 37 °C
[3] = molecular target: T2, GFP–FUT8; assay: nano LC-MS/MS of N-glycan fucosylation on EMI; assay type: biochemical; settings: donor; 100 μM with 0.5 μM non-fucosylated MMRN1 N-terminal EMI, 50 mM HEPES pH 7, 37 °C, 30 min; positive control
[4] = substrate: C[C@@H]1O[C@H](OP(=O)(O)OP(=O)(O)OC[C@H]2O[C@@H](n3cnc4c(=O)[nH]c(N)nc43)[C@H](O)[C@@H]2O)[C@@H](O)[C@H](O)[C@@H]1O; assay: nano LC-MS/MS glycopeptide quantification, Michaelis-Menten fit; assay type: biochemical, Homo sapiens; settings: donor, 20 μM non-fucosylated MMRN1 N-terminal EMI, 0.3 mM MnCl2, 50 mM HEPES pH 7, 37 °C, 15 min, same value for T216 and T265 sites
[5] = anti-Myc western blot of medium, normalised to IgG
[6] = western blot of cell lysates; settings: glycan lost; control: wild type full-length MMRN1
[7] = glycan lost, control: wild type full-length MMRN1

Row | Molecule | expression_or_secretion [6] | expression_or_secretion, other: % reduction vs WT [5, 7] | also measured
1 | GFP–FUT11 (human FUT11 lacking the transmembrane domain, from pGEn2-GFP-hFUT11) (from UniProt Q495W5 1-492) (enzyme) |  |  | Km for non-fucosylated N-terminal EMI at the T216 site; O-fucosylation kinetics by LC-MS/MS, Michaelis–Menten fit, 50 nM enzyme, 100 μM GDP-fucose, 0.3 mM MnCl2, 37 °C, 15 min [1]: 6.74 µM
2 | C[C@@H]1O[C@H](OP(=O)(O)OP(=O)(O)OC[C@H]2O[C@@H](n3cnc4c(=O)[nH]c(N)nc43)[C@H](O)[C@@H]2O)[C@@H](O)[C@H](O)[C@@H]1O [GDP-fucose] |  |  | nano LC-MS/MS of O-fucosylated EMI peptides [2]: Both GFP–FUT10 and GFP–FUT11 can independently add fucose to EMI substrates; nano LC-MS/MS of N-glycan fucosylation on EMI [3]: GFP–FUT8 was used as a positive control, and it robustly added fucose to N-glycans
3 | B1 |  |  | Km [4]: 5 µM
4 | B2 |  |  | expression_or_secretion, other: % reduction vs WT ([5]; glycan lost, control: N-terminal EMI in WT HEK293T cells): decreases
5 | B3 | no change | decreases | 
6 | B4 | no change | decreases | 
7 | B5 |  |  | expression_or_secretion, other: % reduction vs WT ([5]; glycan changed form, control: N-terminal EMI in WT HEK293T cells): decreases
8 | B6 | no change | abolishes | 
9 | B7 | no change | no change | 
